Laboratory results from patent publication US9145571B2, “Preparation method of human metabolites of simvastatin or lovastatin using bacterial cytochrome P450 and composition therefor” (priority 2009, dated 2015).
Several values for one entry are separate records, joined by “and”; a condition that tells them apart may be missing. Equal entries are not always repeated.

B1: BM3 WT: wild-type bacterial cytochrome P450 BM3 (CYP102A1), Seq ID No. 16 (protein, listed as Bacillus megaterium)
chain: TIKEMPQPKTFGELKNLPLLNTDKPVQALMKIADELGEIFKFEAPGRVTRYLSSQRLIKEACDESRFDKNLSQALKFVRDFAGDGLFTSWTHEKNWKKAHNILLPSFSQQAMKGYHAMMVDIAVQLVQKWERLNADEHIEVPEDMTRLTLDTIGLCGFNYRFNSFYRDQPHPFITSMVRALDEAMNKLQRANPDDPAYDENKRQFQEDIKVMNDLVDKIIADRKASGEQSDDLLTHMLNGKDPETGEPLDDENIRYQIITFLIAGHETTSGLLSFALYFLVKNPHVLQKAAEEAARVLVDPVPSYKQVKQLKYVGMVLNEALRLWPTAPAFSLYAKEDTVLGGEYPLEKGDELMVLIPQLHRDKTIWGDDVEEFRPERFENPSAIPQHAFKPFGNGQRACIGQQFALHEATLVLGMMLKHFDFEDHTNYELDIKETLTLKPEGFVVKAKSKKIPLGGIPSPSTEQSAKKVRKKAENAHNTPLLVLYGSNMGTAEGTARDLADIAMSKGFAPQVATLDSHAGNLPREGAVLIVTASYNGHPPDNAKQFVDWLDQASADEVKGVRYSVFGCGDKNWATTYQKVPAFIDETLAAKGAENIADRGEADASDDFEGTYEEWREHMWSDVAAYFNLDIENSEDNKSTLSLQFVDSAADMPLAKMHGAFSTNVVASKELQQPGSARSTRHLEIELPKEASYQEGDHLGVIPRNYEGIVNRVTARFGLDASQQIRLEAEEEKLAHLPLAKTVSVEELLQYVELQDPVTRTQLRAMAAKTVCPPHKVELEALLEKQAYKEQVLAKRLTMLELLEKYPACEMKFSEFIALLPSIRPRYYSISSSPRVDEKQASITVSVVSGEAWSGYGEYKGIASNYLAELQEGDTITCFISTPQSEFTLPKDPETPLIMVGPGTGVAPFRGFVQARKQLKEQGQSLGEAHLYFGCRSPHEDYLYQEELENAQSEGIITLHTAFSRMPNQPKTYVQHVMEQDGKKLIELLDQGAHFYICGDGSQMAPAVEATLMKSYADVHQVSEADARLWLQQLEEKGRYAKDVWAG

Key:
[1] = Oxidation of simvastatin by CYP102A1 wild type/mutants and human CYP3A4, product formation rate (turnover number); type: biochemical; settings: 100 μM simvastatin; mean±SD of triplicate; N.D. = less than 0.001
Procedure: (§1) It was examined whether CYP102A1 and mutants thereof can oxidize simvastatin and lovastatin. Typical steady-state reactions for the oxidation of simvastatin and lovastatin included 50 pmol CYP102A1 in 0.25 ml of 100 mM potassium phosphate buffer (pH 7.4) along with a specified amount of substrate. To determine the kinetic parameters of several CYP102A1 mutants, 2 to 200 μM of statins were used. An aliquot of a NADPH-generating system was used to initiate reactions (final concentrations: 10 mM glucose 6-phosphate, 0.5 mM NADP+, and 1 IU yeast […]). A stock solution of statins (20 mM) was prepared in DMSO and diluted into the enzyme reactions with a final organic solvent concentration of <1% (v/v).
(§2) In the case of human CYP3A4 activity assay, a control experiment of 50 pmol P450, 100 pmol NADPH-P450 reductase (CPR), 100 pmol cytocrhome b5, and 45 μM L-α-dilauroyl-sn-glycero-3-phosphocholine (DLPC) was used instead of 50 pmol CYP102A1. After the solution was incubated for 30 minutes at 37° C., the reaction was terminated with 2-fold of ice-cold dichloromethane.
(§3) After centrifugation of the reaction mixture, the supernatant was carefully removed and the solvent was evaporated under N2 gas as described in Vickers et al., 1990. The products were analyzed by HPLC using a Gemini C18 column (4.6 mm×150 mm, 5 μm, Phenomenex, Torrance, Calif.) with a mobile phase of acetonitrile/water (70/30, v/v) containing 2.5 mM formic acid. Eluates were detected by UV at 238 nm.
(§4) First, the ability of wild-type and a set of P450 BM3 mutants to oxidize simvastatin and lovastatin was measured at a fixed substrate concentration (100 μM). While simvastatin and lovastatin are known to produce at least four and three metabolites, respectively, CYP102A1 mutants produced only two metabolites, one major (6β-OH statin) and one minor (6′-exomethylene statin) metabolites. The metabolites were analyzed by HPLC and compared to those of human CYP3A4 (FIGS. 1 and 2). Since there is no need to comprise a separate step of the 6′β-OH statin and 6′-exomethylene statin from other products, the use of wild-type and mutant CYP102A1 is beneficial.
(§5) Assays were performed using 100 μM simvastatin or lovastatin. Values are the mean±SD of triplicate determinations.

[2] = Total turnover numbers of 6′β-OH product formation, lovastatin; type: biochemical; settings: total 1.0 mM statin, 37° C., 4 hours
Procedure: In order to measure the total turnover numbers (TTNs; mol product/mol catalyst) of mutant CYP102A1, total 1.0 mM statin was used. The reaction was initiated by the addition of the NADPH-generating system in the presence of 500 μM substrate and incubated at 37° C. for 4 hours. After 2 hours of incubation, the 500 μM substrate was added to the reaction mixture. […]

[3] = Kinetic parameters of 6′β-hydroxylation of simvastatin; type: biochemical; settings: 2 to 200 μM statin
Procedure: (§6) The 6′β-hydroxylation rates of simvastatin (A) and lovastatin (B) were measured in reaction mixtures consistingof 50 pmol CYP102A1 in 0.25 ml of 100 mM potassium phosphate buffer (pH 7.4) along with a specified amount of substrate (2 to 200 μM of statins)
as §1
(§7) The kinetic parameters (Km and kcat) were determined using nonlinear regression analysis with GraphPad PRISM software (GraphPad, San Diego, Calif.). […]

[4] = Total turnover numbers of 6′β-OH product formation, simvastatin; type: biochemical; settings: total 1.0 mM statin, 37° C., 4 hours
Procedure: In order to measure the total turnover numbers (TTNs; mol product/mol catalyst) of mutant CYP102A1, total 1.0 mM statin was used. The reaction was initiated by the addition of the NADPH-generating system in the presence of 500 μM substrate and incubated at 37° C. for 4 hours. After 2 hours of incubation, the 500 μM substrate was added to the reaction mixture. The formation rate of simvastatin metabolites was determined by HPLC chromatograms.

[5] = Kinetic parameters of 6′β-hydroxylation of lovastatin; type: biochemical; settings: 2 to 200 μM statin
Procedure: as §6, §1, §7

[6] = Oxidation of lovastatin by CYP102A1 wild type/mutants and human CYP3A4, product formation rate (turnover number); type: biochemical; settings: 100 μM lovastatin; mean±SD of triplicate; N.D. = less than 0.001
Procedure: as §1, §2, §3, §4, §5

[7] = molecular target: T1, CYP102A1 mutant #16 (Priestia megaterium, UniProt P14779, E144G/E268V/F82I/F88V/L189Q/R48L); type: biochemical, Bacillus megaterium; settings: 50 μM αNF
T1 construct: made in house; host or cells: Escherichia coli DH5αF′-IQ (soluble cytosolic fraction)
Procedure: (§8) Reaction mixtures consists of 50 pmol P450, 100 mM potassium phosphate buffer (pH 7.4), a NADPH-generating system, and a substrate (100 μM of simvastatin or lovastatin) in the presence of αNF (2 to 50 μM).
(§9) Products were analyzed by HPLC, as described above. In the case of human CYP3A4 activity assay, a control experiment of 50 pmol P450, 100 pmol NADPH-P450 reductase (CPR), 100 pmol cytocrhome b5, and 45 μM DLPC was used instead of 50 pmol CYP102A1.

[8] = molecular target: T2, CYP102A1 mutant #17 (Priestia megaterium, UniProt P14779, E144G/E268V/E65G/F82I/F88V/L189Q/R48L); type: biochemical, Bacillus megaterium; settings: 50 μM αNF
T2 construct: made in house; host or cells: Escherichia coli DH5αF′-IQ (soluble cytosolic fraction)
Procedure: as §8, §9

[9] = molecular target: triple CYP102A1 mutant of R47L/F87V/L188Q (Priestia megaterium, UniProt P14779, F88V/L189Q/R48L); settings: cited from earlier work
triple CYP102A1 mutant of R47L/F87V/L188Q, sequence (P14779 2-1049 R48L/F88V/L189Q): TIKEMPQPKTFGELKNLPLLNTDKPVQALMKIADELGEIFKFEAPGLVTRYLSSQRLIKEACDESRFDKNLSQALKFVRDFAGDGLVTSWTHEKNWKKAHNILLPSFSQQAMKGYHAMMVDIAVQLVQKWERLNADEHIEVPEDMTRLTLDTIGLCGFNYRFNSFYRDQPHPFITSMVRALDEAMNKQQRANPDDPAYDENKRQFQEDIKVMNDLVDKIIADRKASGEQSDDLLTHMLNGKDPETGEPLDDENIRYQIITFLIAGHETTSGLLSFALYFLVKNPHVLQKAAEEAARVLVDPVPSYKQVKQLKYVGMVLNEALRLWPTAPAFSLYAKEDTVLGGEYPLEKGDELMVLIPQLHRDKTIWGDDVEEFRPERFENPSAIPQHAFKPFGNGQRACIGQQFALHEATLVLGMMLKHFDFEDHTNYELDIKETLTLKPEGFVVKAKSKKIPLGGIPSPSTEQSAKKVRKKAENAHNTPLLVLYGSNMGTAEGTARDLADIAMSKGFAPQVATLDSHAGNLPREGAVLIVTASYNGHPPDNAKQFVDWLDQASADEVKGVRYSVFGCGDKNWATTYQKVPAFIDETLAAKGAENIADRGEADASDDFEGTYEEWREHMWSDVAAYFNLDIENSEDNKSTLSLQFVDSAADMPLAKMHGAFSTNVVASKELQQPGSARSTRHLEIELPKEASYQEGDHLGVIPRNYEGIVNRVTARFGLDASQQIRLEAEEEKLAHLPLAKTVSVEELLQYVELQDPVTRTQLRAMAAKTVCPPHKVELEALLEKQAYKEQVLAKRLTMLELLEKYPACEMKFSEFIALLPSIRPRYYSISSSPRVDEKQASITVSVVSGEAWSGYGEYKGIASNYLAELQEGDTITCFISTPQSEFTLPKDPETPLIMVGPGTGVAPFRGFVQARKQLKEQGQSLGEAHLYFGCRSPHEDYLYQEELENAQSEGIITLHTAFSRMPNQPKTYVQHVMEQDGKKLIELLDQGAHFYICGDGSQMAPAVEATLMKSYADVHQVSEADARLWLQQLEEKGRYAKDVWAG

T1 sequence (P14779 2-1049 R48L/F82I/F88V/E144G/L189Q/E268V): as the sequence (P14779 2-1049 R48L/F88V/L189Q) above, with F81I, E143G, E267V counted along it
T2 sequence (P14779 2-1049 R48L/E65G/F82I/F88V/E144G/L189Q/E268V): as the sequence (P14779 2-1049 R48L/F88V/L189Q) above, with E64G, F81I, E143G, E267V counted along it

Molecule | Simvastatin 6β′-OH product formation rate [1] | Simvastatin 6′-Exomethylene product formation rate [1] | Total turnover number of 6′β-OH product formation, lovastatin [2] | Km [3] | kcat, 6′β-hydroxylation of simvastatin [3] | Total turnover number of 6′β-OH product formation, simvastatin [4] | Km [5] | kcat, 6′β-hydroxylation of lovastatin [5] | Lovastatin 6β′-OH product formation rate [6] | Lovastatin 6′-Exomethylene product formation rate [6] | Inhibition of 6′β-hydroxylation activity of lovastatin ([7]; 100 μM lovastatin) | Inhibition of 6′β-hydroxylation activity of simvastatin ([7]; 100 μM simvastatin) | Inhibition of 6′β-hydroxylation activity of lovastatin ([8]; 100 μM lovastatin) | Inhibition of 6′β-hydroxylation activity of simvastatin ([8]; 100 μM simvastatin) | Effect on metabolism of acetaminophen and 3,4-methylenedioxymethylamphetamine [9] | Total turnover number of 6′β-OH product formation, lovastatin ([2]; listed as wild-type CYP102A1) | Total turnover number of 6′β-OH product formation, simvastatin ([4]; listed as wild-type CYP102A1)
Human CYP3A4: human cytochrome P450 3A4, reconstituted with NADPH-P450 reductase, cytochrome b5 and DLPC | 3.0 ± 0.1 nmol product/min/nmol P450 | 0.22 ± 0.01 nmol product/min/nmol P450 | 44 ± 6 nmol product/nmol P450 | 130 µM | 0.11 s⁻¹ and 0.11 ± 0.015 s⁻¹ | 35 ± 5 nmol product/nmol P450 | 54 ± 15 µM | 0.07 s⁻¹ and 0.07 ± 0.0083 s⁻¹ | 6.5 ± 0.3 nmol product/min/nmol P450 | 0.43 ± 0.01 nmol product/min/nmol P450 | – | – | – | – | – | – | –
O=c1cc(-c2ccccc2)oc2c1ccc1ccccc12 [αNF, 7,8-benzoflavone] | – | – | – | – | – | – | – | – | – | – | 48% | 44% | 76% | 77% | did not have a significant effect | – | –
B1 | 0.0049 ± 0.0017 nmol product/min/nmol P450 | N.D. (not detectable(the rate of product formation was less than 0.001 nmol product/min/nmol P450)) | 1.9 ± 0.6 nmol product/nmol P450 | – | – | 0.77 ± 0.04 nmol product/nmol P450 | – | – | N.D. (not detectable(the rate of product formation was less than 0.001 nmol product/min/nmol P450)) | N.D. (not detectable(the rate of product formation was less than 0.001 nmol product/min/nmol P450)) | – | – | – | – | – | 1.9 nmol product/nmol P450 | 0.77 nmol product/nmol P450
